T1: SmMYB36 (Salvia miltiorrhiza, UniProt A0A059PRJ2 1-160)
T1 sequence: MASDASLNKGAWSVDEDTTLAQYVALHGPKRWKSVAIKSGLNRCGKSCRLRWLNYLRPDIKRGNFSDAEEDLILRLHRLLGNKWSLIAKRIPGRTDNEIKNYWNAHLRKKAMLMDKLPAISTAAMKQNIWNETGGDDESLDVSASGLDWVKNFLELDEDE

B1: MCT-MBS2-2 (dsDNA)
DNA 1: AAAACAGGCATCCGGTCAGTAAGTCCGCAT
DNA 2: ATGCGGACTTACTGACCGGATGCCTGTTTT
B2: MBSII core (dsDNA)
DNA 1: AAAAGTTAGTTA
DNA 2: TAACTAACTTTT
B3: MBS1 core (dsDNA)
DNA 1: CAACTG
DNA 2: CAGTTG
B4: DXR-MRE (dsDNA)
DNA 1: CCCCTTTTACAAAACCTAATTTCCCCCCAT
DNA 2: ATGGGGGGAAATTAGGTTTTGTAAAAGGGG
B5: GGPPS1-MRE (dsDNA)
DNA 1: TTTTTCGATAGTAACCTAATTTTCTGTAGTG
DNA 2: CACTACAGAAAATTAGGTTACTATCGAAAAA
B6: IPPI-MBS1 (dsDNA)
DNA 1: CCGCCGCCGCCACAACTGTAATGGTGCTTT
DNA 2: AAAGCACCATTACAGTTGTGGCGGCGGCGG
B7: C4H1-MBS1 (dsDNA)
DNA 1: TCTTTAAAACTCCAACTGATATGATGTTCG
DNA 2: CGAACATCATATCAGTTGGAGTTTTAAAGA
B8: HMGS1-MBS3 (dsDNA)
DNA 1: GTGTGTGCTGTTTAACTGATCCGCTATTTC
DNA 2: GAAATAGCGGATCAGTTAAACAGCACACAC
B9: MCT-MBS3-1 (dsDNA)
DNA 1: TATCATCTTCGGTAACTGATACTCAAGGAT
DNA 2: ATCCTTGAGTATCAGTTACCGAAGATGATA
B10: HPPR-MRE-1 (dsDNA)
DNA 1: TTTTGTGGGACAAACCTAAAAAGAAACTGAA
DNA 2: TTCAGTTTCTTTTTAGGTTTGTCCCACAAAA
B11: GGPPS1-MBS2 (dsDNA)
DNA 1: TTAAAATCGTTACGGTCATACCACGGAAAC
DNA 2: GTTTCCGTGGTATGACCGTAACGATTTTAA
B12: 4CL2-MRE (dsDNA)
DNA 1: TTTGTAGAGTTGAACCTAAAGATGATGGGTG
DNA 2: CACCCATCATCTTTAGGTTCAACTCTACAAA
B13: MBSI-2 core (dsDNA)
DNA 1: AAAAAACGGTTA
DNA 2: TAACCGTTTTTT
B14: C4H1-MBS3 (dsDNA)
DNA 1: GTTTAAAAGACATAACTGAGTTATCGAACA
DNA 2: TGTTCGATAACTCAGTTATGTCTTTTAAAC
B15: MCT-MBS2-1 (dsDNA)
DNA 1: AGGAAACCCTCACGGTCACCTTAACATTCA
DNA 2: TGAATGTTAAGGTGACCGTGAGGGTTTCCT
B16: MBSI-1 core (dsDNA)
DNA 1: AAAAAACCGTTA
DNA 2: TAACGGTTTTTT
B17: MCT-MBS3-2 (dsDNA)
DNA 1: AACTAGATGAATTAACTGGTAGCAATTACC
DNA 2: GGTAATTGCTACCAGTTAATTCATCTAGTT
B18: HPPR-MRE-2 (dsDNA)
DNA 1: AATGATTGATTTAACCTAATCATTGTGAAACC
DNA 2: GGTTTCACAATGATTAGGTTAAATCAATCATT

What follows are binders tested against T1, SmMYB36 (assay: EMSA; Invitrogen EMSA kit, probe:protein mass ratio 1:15, 10 µL; protein eluted in 50 mM NaH2PO4, 300 mM NaCl, 250 mM imidazole pH 8.0; binding buffer and temperature not given). Conditions: protein: recombinant; tags: His (pET32a fusion); blunt.

Binding result, binds:
B1
B2
B3
B4
B5
B6
B7
B8
B9
B10
B11
B12
B13
B14
B15
B16
B17
B18
